Experimental data from publication PMC1479692, “The PLAC1-homology region of the ZP domain is sufficient for protein polymerisation” (BMC Biochemistry, 2006).

Target: the molecule itself
Test: SEC; purified MBP-ZP-N-6his on Sephacryl S-300 HR (FPLC) and Bio-Sil SEC-250-5 (HPLC) columns, ~300 kDa Mr cut-off; buffer F (10 mM Na-HEPES pH 8.0, 100 mM NaCl, 1 mM maltose, 1 mM NaN3); also with 10 mM DTT, and after pre-incubation with 10 mM EDTA

B1: MBP-ZP-N-6his fusion protein (PLAC1-homology region, ZP-N, of the ZP domain of mouse ZP3) (domain or fragment, UniProt P10761 42-143, looked up)
chain: VKVECLEAELVVTVSRDLFGTGKLVQPGDLTLGSEGCQPRVSVDTDVVRFNAQLHECSSRVQMTKDALVYSTFLLHDPRPVSGLSILRTNRVEVPIECRYPR
modifications: intramolecular disulfides Cys 46-Cys 139 and Cys 78-Cys 98 (ZP3 numbering)
notes: mouse ZP3 (zona pellucida sperm receptor), aa 42-143, the 102-amino acid ZP-N fragment; The assay buffer contained 1 mM maltose; also called recombinant ZP-N; ZP-N fragment; source: E. coli Origami B (DE3) (trxB gor), co-expressing ΔSSdsbC and TrxA(G33P, P34Y); purified (Ni2+ HiTrap Chelating HP, amylose resin, Mono Q); not shown: His6 (LEH6), C-terminal, kept
- binding result: binds
